Laboratory results published in patent US20040132094A1 (ANAPHORE, published 2004).

Target: T1, bovine serum albumin (bovine, UniProt P02769 25-607)
T1 construct: Control coating; also called BSA
Assay: phage ELISA on coated BSA, HRP anti-phage detection
Method: Recombinant phages were isolated by precipitation with poly(ethylene glycol) (PEG 8000) and samples of Phtlec and PhTN3 phage preparations as well as a sample of helper phage were subjected to an ELISA-type sandwich assay, in which wells of a Maxisorb (Nunc) multiwell plate were first incubated with anti-human tetranectin or bovine serum albumin (BSA) and blocked in skimmed milk or skimmed milk/EDTA. Briefly, cultures of pPhtlec and pPhTN3 phagemid transformed TG1 cells were grown at 37° C. in 2×TY-medium supplemented with 2% glucose and 100 mg/L ampicillin until A₆₀₀ reached 0.5. By then the helper phage, M13K07, was added to a concentration of 5×10⁹ pfu/mL. The cultures were incubated at 37° C. for another 30 min before cells were harvested by centrifugation and resuspended in the same culture volume of 2×TY medium supplemented with 50 mg/L kanamycin and 100 mg/L ampicillin and transferred to a fresh set of flasks and grown for 16 hours at 25° C. Cells were removed by centrifugation and the phages precipitated from 20 mL culture supernatant by the addition of 6 mL of ice cold 20% PEG 8000, 2.5 M NaCl. After mixing the solution was left on ice for one hour and centrifuged at 4° C. to isolate the precipitated phages. […] Phages in the wells were detected after incubation with HRP-conjugated anti-phage conjugate (Amersham Pharmacia, code no. 27-9421-01) followed by further washing.

T1 sequence (P02769 25-607 limits assumed): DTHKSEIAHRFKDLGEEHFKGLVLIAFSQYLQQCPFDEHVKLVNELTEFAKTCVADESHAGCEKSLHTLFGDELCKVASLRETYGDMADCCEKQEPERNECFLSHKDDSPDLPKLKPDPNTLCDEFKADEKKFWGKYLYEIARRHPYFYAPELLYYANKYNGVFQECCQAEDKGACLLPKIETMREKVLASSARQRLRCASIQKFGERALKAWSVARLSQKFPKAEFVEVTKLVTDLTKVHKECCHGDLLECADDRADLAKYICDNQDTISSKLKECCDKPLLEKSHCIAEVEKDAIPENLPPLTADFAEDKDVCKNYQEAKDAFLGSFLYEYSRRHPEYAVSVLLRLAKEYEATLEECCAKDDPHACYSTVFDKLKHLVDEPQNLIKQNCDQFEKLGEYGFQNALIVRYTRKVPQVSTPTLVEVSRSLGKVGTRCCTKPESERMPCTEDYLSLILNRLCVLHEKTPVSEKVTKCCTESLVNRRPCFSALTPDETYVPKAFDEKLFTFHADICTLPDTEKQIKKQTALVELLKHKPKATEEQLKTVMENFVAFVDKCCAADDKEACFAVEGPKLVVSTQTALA

Row | Binder | binding result
1 | Phtlec phage (Phtlec-gene III fusion protein displayed on recombinant phage) (other, Tested as whole phage particles rescued with M13KO7; claim 15 says htlec itself is position 5 Glu to 185 Val of it; also called human Phtlec phages; Phlec; not shown: phage gene III protein fused after the Phtlec part, as encoded by phagemid pCANTAB 5E; limits and any tag in between not) PAMAEPPTQKPKKIVNAKKDVVNTKMFEELKSRLDTLAQEVALLKEQQALQTVVLKGTKVHMKVFLAFTQTKTFHEASEDCISRGGTLSTPQTGSENDALYEYLRQSVGNEAEIWLGLNDMAAEGTWVDMTGTRIAYKNWETEITAQPDGGKTENCAVLSGAANGKWFDKRCRDQLPYICQFGIVA | no binding
2 | PhTN3 phage (PhTN3-gene III fusion protein displayed on recombinant phage) (other, Tested as whole phage particles rescued with M13KO7; claim 18 says hTN3 is position 5 Ala to 141 Val of it; also called human PhTN3 phages; PhCTLD; not shown: phage gene III protein fused after the PhTN3 part, as encoded by phagemid pCANTAB 5E; limits and any tag in between not) PAMAALQTVCLKGTKVHMKCFLAFTQTKTFHEASEDCISRGGTLSTPQTGSENDALYEYLRQSVGNEAEIWLGLNDMAAEGTWVDMTGARIAYKNWETEITAQPDGGKTENCAVLSGAANGKWFDKRCRDQLPYICQFGIVA | no binding
